{"source": "patent US20250215092A1", "about": "(ZHEJIANG NANOMAB TECHNOLOGY CENTER, published 2025)", "binders": {"B1": {"name": "E006.8 (VHH)", "VHH": "EVQLVESGGGLVQPGGSLRLSCTASGFTFDTYTTSWERQAPGKEREMVSVLATTGGKPYYVESVKGRFTISRDASENAVTLQMNSLRAEDTAVYYCKATSRSPVNPHNYSGQGTLVTVSS", "notes": "Humanized VHH; also called humanized variant of E006"}}, "molecular_target": "T1, human EGFR.His antigen (Acro, Cat #EGR-H522a) (human, UniProt P00533 25-645)", "T1 construct": "extracellular domain; Bought protein; also called EGFR his tag protein; full-length EGFR extracellular domain protein; not shown: His tag", "experiment": "SPR, human EGFR.His"}
{"binder": "B1", "values": [{"measurement": "Kd", "value": 15, "unit": "nM"}, {"measurement": "koff", "value": 0.0004, "unit": "s⁻¹"}, {"measurement": "kon", "value": 27000, "unit": "M⁻¹ s⁻¹"}]}
